Measured values reported in IntAct's records for PubMed 25477193.

How the values were obtained:
[1] = molecular target: kap3_human PRKAR2B (UniProt P31323)
[2] = molecular target: kap3_human PRKAR2B (UniProt P31323); remark: listed apart in the source

For “cAMP-dependent protein kinase catalytic subunit alpha (Homo sapiens) (from UniProt P17612) L206R”, the “effect of a mutation on the interaction” value [1] was “disrupting interaction strength” and the “effect of a mutation on the interaction” value [2] was “decreasing interaction strength”.
